These results are taken from the supplement of paper PMC10567573.

This data set is described as follows: protein stability index of a GFP-peptide fusion (GPS, HEK-293T) (PSI 1-6); higher = more stable. As to conditions: c terminus: a fixed tail appended.

± gives the standard deviation.
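Also: 24-mer peptide tiles fused after GFP, lentivirally expressed, FACS-sorted into six equal bins by GFP/DsRed ratio, decoded by Illumina sequencing, PSI is the read-weighted mean bin number.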

On to VTSIHKYMVRRYFNKPSRVPAPEA [MYORG], for which the protein stability index by setting is: (treatment: DMSO) 2.42 ± 0.14; (treatment: MLN4924 1 uM, 8 h) 2.38 ± 0.3.
In the case of KDAAKQIAWIKDKLLHIYYQNSID [PDS5B], the protein stability index by setting is: (treatment: DMSO) 1.78 ± 0.31; (treatment: MLN4924 1 uM, 8 h) 2.39 ± 0.26.
Regarding PNCFRKDPDINMHPFFFALGKILS [FADS1], the protein stability index runs as follows: (treatment: DMSO) 2.1 ± 0.51; (treatment: MLN4924 1 uM, 8 h) 2.33 ± 0.5.
